According to publication PMC6171530 (Nature chemical biology, 2018):

B1: His6-RNR-α (enzyme, human, UniProt P23921 1-792, looked up)
chain: MHVIKRDGRQERVMFDKITSRIQKLCYGLNMDFVDPAQITMKVIQGLYSGVTTVELDTLAAETAATLTTKHPDYAILAARIAVSNLHKETKKVFSDVMEDLYNYINPHNGKHSPMVAKSTLDIVLANKDRLNSAIIYDRDFSYNYFGFKTLERSYLLKINGKVAERPQHMLMRVSVGIHKEDIDAAIETYNLLSERWFTHASPTLFNAGTNRPQLSSCFLLSMKDDSIEGIYDTLKQCALISKSAGGIGVAVSCIRATGSYIAGTNGNSNGLVPMLRVYNNTARYVDQGGNKRPGAFAIYLEPWHLDIFEFLDLKKNTGKEEQRARDLFFALWIPDLFMKRVETNQDWSLMCPNECPGLDEVWGEEFEKLYASYEKQGRVRKVVKAQQLWYAIIESQTETGTPYMLYKDSCNRKSNQQNLGTIKCSNLCTEIVEYTSKDEVAVCNLASLALNMYVTSEHTYDFKKLAEVTKVVVRNLNKIIDINYYPVPEACLSNKRHRPIGIGVQGLADAFILMRYPFESAEAQLLNKQIFETIYYGALEASCDLAKEQGPYETYEGSPVSKGILQYDMWNVTPTDLWDWKVLKEKIAKYGIRNSLLIAPMPTASTAQILGNNESIEPYTSNIYTRRVLSGEFQIVNPHLLKDLTERGLWHEEMKNQIIACNGSIQSIPEIPDDLKQLYKTVWEISQKTVLKMAAERGAFIDQSQSLNIHIAEPNYGKLTSMHFYGWKQGLKTGMYYLRTRPAANPIQFTLNKEKLKDKEKVSKEEEEKERNTAAMVCSLENRDECLMCGS
B2: His6-HA-HNH&APIM (domain or fragment, UniProt Q5FWF4 929-1079, looked up)
chain: NSWDSRFCSLKCQEEFWIRSNNSYLRAKVFETEHGVCQLCNVNAQELFLRLRDAPKSQRKNLLYATWTSKLPLEQLNEMIRNPGEGHFWQVDHIKPVYGGGGQCSLDNLQTLCTVCHKERTARQAKERSQVRRQSLASKHGSDITRFLVKK

Experiments:
[1] = molecular target: the molecule itself; assay: negative-stain electron microscopy
[2] = molecular target: B1; assay: pull-down

Row | Binder | stoichiometry N [1] | binding result [2]
1 | B1 | 6 | –
2 | B2 | – | binds
